Measured values taken from patent publication WO2008074868A1 (dated 2008).
Numbering of substitutions follows the chain as printed.

B1: 4B10 (VHH)
VHH: EVQLVESGGGLVQAGDSLRLSCAASGRTFSSYAMGWFRQAPGTERQFVARITGKGDSTDYADSVRGRFTISRDNAKNTVYLQMNSLKPEDTAVYYCAADAFNSLLQAGRAEYWGQGTQVTVSS
notes: Tested as periplasmic extract; also called 4B1Θ
B2: 4B1 (VHH)
VHH: EVQLVESGGGLVQPGGSLRLSCVAAGFTLDYYAIGWFRQAPGKEREGVSCITSDGRTYYADSVKGRFTISRDMAKKMVYLQMNSLKPEDTAVYYCAAGACMGGSGYEADFGSWGQGTQVTVSS
notes: Tested as periplasmic extract; also called 4Bl
B3: 4C4 (VHH)
VHH: EVQLVESGGGLVQAGDSLRLSCAASGRPFMSYVMGWFRRAPGKEREFVGGINWGSGNTWYTDSVLGRFTISRDNAKNTVYLQMNSLKPEDTAVYYCATAAGVGYYRYERQYDYWGQGTQVTVSS
notes: Tested as periplasmic extract
B4: 4C5 (VHH)
VHH: B3 VHH with M30S, S31A, G54N, G56A, R72K, T98A, A100G
notes: Tested as periplasmic extract; also called 4CS
B5: 4C3 (VHH)
VHH: EVQLVESGGGLVQAGGSLRLSCAASGRTFSSYAMAWFRQAPGEEREFVATISVSGGYTYYADSVKGRFTISRDNAKNTVYLQMNTLKPEDTAVYYCAAGDSSSWLEHMYDYWGQGTQVTVSS
notes: Tested as periplasmic extract
B6: 4B8 (VHH)
VHH: EVQLVESGGGLVQAGGSLRLSCAASGGTYSGNAMAWFRQAPGKEREFVAGIDWSSENTRYIDSVKGRFTISRDNAKNTMYLQMNSLKPEDTAVYYCAAGTSWGALASRLEAAYSSWGQGTQVTVSS
notes: Tested as periplasmic extract
B7: 4B5 (VHH)
VHH: B6 VHH with G16D, G27R, G31R, N77S
notes: Tested as periplasmic extract
B8: 4B6 (VHH)
VHH: B6 VHH with E1K, A14V, A23V, G27R, S30G, I61T, A111N, S115A
notes: Tested as periplasmic extract
B9: 4A6 (VHH)
VHH: B2 VHH with V23A, A25S, G26P, I51S, D54H, R56K, Y59H, M73N, K76N, M77T
notes: Tested as periplasmic extract; also called 4Aό
B10: 4C9 (VHH)
VHH: EVQLVESGGGLVQAGDSLRLSCTASERPFSTYVMGWFRRAPGKEREFVGGITWSGINAWYTDSVLGRFTISSDNAKNTVYLQMNSLKPEDTAVYYCAAASGVGRYRYELQYDYWGQGTQVTVSS
notes: Tested as periplasmic extract
B11: 4C8 (VHH)
VHH: EVQLVESGGGLVQAGDSLRLSCAASGRTYTPYVMGWFRRAPGKEREFVGAVSWSGTNTWYTDSVKGRFTISRDNAKNTVYLQMNSLKPEDTAVYYCAAGDGVGIYRYEHQYDYWGQGTQVTVSS
notes: Tested as periplasmic extract
B12: 1E7 (VHH)
VHH: EVQLVESGGGLVQAGGSLRLSCAASGRTFSNYVMGWFRQAPGKEREFVAAISWSGVTTYHYSADSVKGRFTTSRDNDRNTAHLQMNSLKPEDTAVYYCAARGRTGSDPRKGDDYDYWGQGTQVTVSS
B13: 1D2 (VHH)
VHH: EVQLVESGGGLVQPGGSLRLSCAASGFTLDYYAIGWFRRAPGKEREGVSCTSSSDGSTYYADSVKGRFTISRDNAKNTVYLQMNSLKPEDTAVYYCATTFGDACTVVAGIPDQYDFGSWGQGTQVTVSS
B14: 4A9 (VHH)
VHH: EVQLVESGGGLVQAGGSLRLSCEASGFTLDYSGVGWFRQAPGKERELVSCISRGGDRAGYANSVKGRFTMSRDNAKNILYLQMNSLKPEDTAVYYCAATHSGSGCYDGAIDYWGKGTLVTVSS
B15: 4B7 (VHH)
VHH: EVQLVESGGGLVQAGGSLRLSCAASGFTFDDYAIGWFRQAPGKEREGVSCISSRDGITYYADSVKGRFTISSDNAKNTVYLQMNSLKPEDTAVYYCAADLVGSFPCPVAAYDYWGQGTQVTVSS
B16: 1D7 (VHH)
VHH: EVQLVESGGGLVQSGGSLRLSCAASGRAFNYYAMGWFRQAPGKERELVAVINWSGGTTSYADSVKGRFTISRSNAKNTVYLQMSSLKPEDTAVYYCAADSIYRTSKDYNYWGQGTQVTVSS
B17: 4D9 (VHH)
VHH: B13 VHH with A33D, R39Q
notes: Purified Nanobody

Molecular target: T1, human serum albumin (human, UniProt P02768 25-609)
T1 construct: also called HSA
Experiment: SPR (Biacore T100) over immobilized human serum albumin, pH 7, pH 6 and pH 5

| binding result | Binder |
| --- | --- |
| binds | B1 |
| binds | B2 |

Molecular target: T1, human serum albumin
Experiment: SPR (Biacore T100), periplasmic extracts over immobilized human serum albumin

| binding result | Binder |
| --- | --- |
| binds | B3 |
| binds | B4 |
| binds | B5 |
| binds | B6 |
| binds | B7 |
| binds | B8 |
| binds | B9 |
| binds | B10 |
| binds | B11 |

Molecular target: T2, human plgR overexpressed in MDCK cells (human, UniProt P01833 19-764)
T2 construct: whole, on cells; also called hpIgR; human polymeric immunoglobulin receptor
T2 sequence (P01833 19-764): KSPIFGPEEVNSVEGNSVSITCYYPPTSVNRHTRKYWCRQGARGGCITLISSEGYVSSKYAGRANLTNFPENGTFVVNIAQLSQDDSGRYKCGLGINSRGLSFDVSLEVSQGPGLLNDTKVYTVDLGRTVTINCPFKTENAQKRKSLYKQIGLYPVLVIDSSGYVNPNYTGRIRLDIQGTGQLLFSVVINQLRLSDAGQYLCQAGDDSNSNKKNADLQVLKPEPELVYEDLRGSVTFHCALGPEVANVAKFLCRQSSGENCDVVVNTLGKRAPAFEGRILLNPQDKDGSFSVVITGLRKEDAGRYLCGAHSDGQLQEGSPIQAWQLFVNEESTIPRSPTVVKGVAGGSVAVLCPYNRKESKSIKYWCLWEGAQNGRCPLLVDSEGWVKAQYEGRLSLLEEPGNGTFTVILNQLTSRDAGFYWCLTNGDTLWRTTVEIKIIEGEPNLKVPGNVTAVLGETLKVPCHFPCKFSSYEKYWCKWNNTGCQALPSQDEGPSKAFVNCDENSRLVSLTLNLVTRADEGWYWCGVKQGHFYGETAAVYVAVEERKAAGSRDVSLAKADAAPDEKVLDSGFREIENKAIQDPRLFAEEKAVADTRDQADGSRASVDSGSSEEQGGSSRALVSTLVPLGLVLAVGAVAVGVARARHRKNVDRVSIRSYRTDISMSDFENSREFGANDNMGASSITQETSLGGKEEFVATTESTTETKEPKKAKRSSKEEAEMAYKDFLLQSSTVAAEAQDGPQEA
Experiment: immunofluorescence on MDCK cells overexpressing human plgR, 3 uM Nanobody at 4C

| binding result | Binder |
| --- | --- |
| binds | B12 |
| binds | B13 |

Molecular target: T1, human serum albumin
Experiment: SPR (Biacore T100), periplasmic extracts over immobilized human serum albumin, pH 7 and pH 5

| fold difference in off rate (pH 5 against pH 7) [fold] | Binder |
| --- | --- |
| 0.54 | B14 |

Molecular target: T2, human plgR overexpressed in MDCK cells
Experiment: immunoprecipitation from cell lysates with His-tagged Nanobody and talon beads, blot with a-hSC

| binding result | Binder |
| --- | --- |
| binds | B15 |
| binds | B16 |

Molecular target: T3, ectodomain of human plgR (R&D Systems Cat # 2717-PG) (human, UniProt P01833 19-638)
T3 construct: extracellular domain; Immobilized at 5 ug/ml on Maxisorp plates; also called plgR ectodomain; pIgR
T3 sequence (P01833 19-638): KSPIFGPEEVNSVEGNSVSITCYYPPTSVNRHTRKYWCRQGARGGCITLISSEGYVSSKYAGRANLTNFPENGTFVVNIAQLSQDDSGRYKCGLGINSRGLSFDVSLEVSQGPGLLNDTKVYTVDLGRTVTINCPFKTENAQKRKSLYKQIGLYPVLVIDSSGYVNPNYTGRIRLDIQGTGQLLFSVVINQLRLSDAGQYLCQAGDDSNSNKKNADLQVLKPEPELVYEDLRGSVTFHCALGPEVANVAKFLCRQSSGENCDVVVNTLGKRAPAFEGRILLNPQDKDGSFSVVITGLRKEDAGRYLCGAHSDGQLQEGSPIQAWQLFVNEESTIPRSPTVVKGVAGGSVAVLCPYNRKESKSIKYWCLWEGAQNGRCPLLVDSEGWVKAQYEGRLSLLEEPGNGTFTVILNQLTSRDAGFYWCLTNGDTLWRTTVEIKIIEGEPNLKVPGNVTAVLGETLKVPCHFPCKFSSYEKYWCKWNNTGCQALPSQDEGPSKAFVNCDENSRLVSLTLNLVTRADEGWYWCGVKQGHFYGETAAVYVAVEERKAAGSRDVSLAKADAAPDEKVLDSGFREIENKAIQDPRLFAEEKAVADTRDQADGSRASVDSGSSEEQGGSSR
Experiment: competition ELISA, dilution series of purified Nanobody against IgA on immobilized plgR ectodomain

| binding result | Binder |
| --- | --- |
| binds | B12 |
| binds | B13 |
| binds | B17 |
| binds | B16 |
